Reference: the DeepSol protein solubility set

Experiment: soluble on expression in E. coli; label from the status in PepcDB or PDB records

Sequence	soluble on expression in E. coli
MSEFSQTVPELVAWARKNDFSISLPVDRLSFLLAVATLNGERLDGEMSEGELVDAFRHVSDAFEQTSETIGVRANNAINDMVRQRLLNRFTSEQAEGNAIYRLTPLGIGITDYYIRQREFSTLRLSMQLSIVAGELKRAADAAEEGGDEFHWHRNVYAPLKYSVAEIFDSIDLTQRLMDEQQQQVKDDIAQLLNKDWRAAISSCELLLSETSGTLRELQDTLEAAGDKLQANLLRIQDATMTHDDLHFVDRLVFDLQSKLDRIISWGQQSIDLWIGYDRHVHKFIRTAIDMDKNRVFAQRLRQSVQTYFDEPWALTYANADRLLDMRDEEMALRDEEVTGELPEDLEYEEFNEIREQLAAIIEEQLAVYKTRQVPLDLGLVVREYLSQYPRARHFDVARIVIDQAVRLGVAQADFTGLPAKWQPINDYGAKVQAHVIDKY	soluble
MKDMKTIEGIIVVTTPEIPGYKVVEVKGVARGGTVRATHIGRDIMALLRNLKGGEVKEYTEMMAEAREEALRRMALHAKELGANAVVNFRFATSNLGGSMAEIYAYGTAVVVERVEK	soluble
MAFPRRLLSLSLRVKDLEAALFFYRDLLGLKVEADPPRYRLFPEGRGFLLELLHDPEAPLRPYPSLGLYHFALLLPHRKALAGVFRRLLEAGAHFEGAADHGVSEALYFRDPEGNGLELYRDRPKEAWPKGPLMFTAPLNLEKLLAENPDPTPLPPETLLGHLHLHVEDLAAAEAFFNGKLGMEVTLRTYPGALFFAWDGYHHHVGANTWAGRRKAPPGATGLLGYTLLAPPGVPPGEHPDPTGALARVLTEPPPSP	soluble
MAHHHHHHMQPVKTAVGIRQGLRRCTQLPNKSFRILHVSPRQLTVSTGGDDILKEQRRLQQHGTCTRNNIFRHGVVCACNLLQGYTISIKTNSLIHHSLNFTGNTKTQASKDTHLSNKLYQTFRIIHLHPPIRINVHQWCIGIQNECMAVILHIHRPMFI	not soluble
RGSHHHHHHGSMGDNIVLYYFDARGKAELIRLIFAYLGIEYTDKRFGVNGDAFVEFKNFKKEKDTPFEQVPILQIGDLILAQSQAIVRYLSKKYNICGESELNEFYADMIFCGVQDIHYKFNNTNLFKQNETTFLNEDLPKWSGYFEKLLKKNHTNNNNDKYYFVGNNLTYADLAVFNLYDDIETKYPSSLKNFPLLKAHNEFISNLPNIKNYITNRKESVY	soluble
MSLSKLPLLPTTVIGSYPRPKWLRESIRLHKAGKMSNEDLQEAFNDAVIAVFQDHYKAGVDVPTDGEVRRDEMVEFFAERIKGFKFYGPVRVWGTAYYRKPSVVSKIEYREPMLVDEFTFAKSVSYTDNLKITITGPYTIAEWSYNEYYRNKKDLVFDLAKAINQEIKNLVEAGAKIIQIDEPALHTRKEDVSWGVEAVNEAVKGVNAKLVMHICYGDYSFVAPYFNEIKVDQINFALKIYNYKPLELLKKYGFDKELGAGVVDVHNRKVETSEEVANDIRKILEYFPPEKVWINPDCGLKLLSRKIAYQKLVSMVEGTKVVREELKRKGYSVDEGHHHHHH	not soluble
MNSILICGGAGYIGSHAVKKLVDEGLSVVVVDNLQTGHEDAITEGAKFYNGDLRDKAFLRDVFTQENIEAVMHFAADSLVGVSMEKPLQYYNNNVYGALCLLEVMDEFKVDKFIFSSTAATYGEVDVDLITEETMTNPTNTYGETKLAIEKMLHWYSQASNLRYKIFRYFNVAGATPNGIIGEDHRPETHLIPLVLQVALGQREKIMMFGDDYNTPDGTCIRDYIHVEDLVAAHFLGLKDLQNGGESDFYNLGNGNGFSVKEIVDAVREVTNHEIPAEVAPRRAGDPARLVASSQKAKEKLGWDPRYVNVKTIIEHAWNWHQKQPNGYEK	soluble
MGSDKIHHHHHHMQIKNTQLGHIAWCETTAQHIAPQDFAVDGWREKNAVVGQSKGRYTTWFVKTDNSDSPQTWVLRHYWRGGMMEKFSRDAYFYTGLQRTRAVAELAILEVLYQEGFAVPRPIAANVERFGLWYRADIIIEHVAGANDLVAYLSHNPMTESQWYLLGETIAKFHQRGVYHADLNAKNILLAHGEFYLIDFDRGELRTPQPTWQQANLDRLLRSFNKEHAKLTTLQFSQQHWLQLLAGYQSINPI	not soluble
